Results from article PMC8632080.

Legend:
Experiment in all cases: ELISA; dose-response: host component coated as in the single-dose assay; increasing concentrations of recombinant protein (0–6 µM LipL21, 0–1.5 µM LipL41) in PBS-BSA, 2 h 37°C; KD from non-linear regression, one site-specific binding (GraphPad Prism 7)
[1] = molecular target: E-cadherin (human recombinant) (human) (UniProt P12830)
collagen IV = molecular target: collagen IV
[2] = molecular target: elastin (human aorta) (human) (UniProt P15502)
[3] = molecular target: laminin (human placenta) (human)
[4] = molecular target: collagen type I (rat tail) (rat) (UniProt P02454)
[5] = molecular target: fibrinogen (human plasma) (human) (UniProt P02671)
[6] = molecular target: plasma fibronectin (human plasma) (human)
[7] = molecular target: plasminogen (human plasma) (human)
[8] = molecular target: vitronectin (human plasma) (human)

UniProt P15502, sequence (P15502 27-786): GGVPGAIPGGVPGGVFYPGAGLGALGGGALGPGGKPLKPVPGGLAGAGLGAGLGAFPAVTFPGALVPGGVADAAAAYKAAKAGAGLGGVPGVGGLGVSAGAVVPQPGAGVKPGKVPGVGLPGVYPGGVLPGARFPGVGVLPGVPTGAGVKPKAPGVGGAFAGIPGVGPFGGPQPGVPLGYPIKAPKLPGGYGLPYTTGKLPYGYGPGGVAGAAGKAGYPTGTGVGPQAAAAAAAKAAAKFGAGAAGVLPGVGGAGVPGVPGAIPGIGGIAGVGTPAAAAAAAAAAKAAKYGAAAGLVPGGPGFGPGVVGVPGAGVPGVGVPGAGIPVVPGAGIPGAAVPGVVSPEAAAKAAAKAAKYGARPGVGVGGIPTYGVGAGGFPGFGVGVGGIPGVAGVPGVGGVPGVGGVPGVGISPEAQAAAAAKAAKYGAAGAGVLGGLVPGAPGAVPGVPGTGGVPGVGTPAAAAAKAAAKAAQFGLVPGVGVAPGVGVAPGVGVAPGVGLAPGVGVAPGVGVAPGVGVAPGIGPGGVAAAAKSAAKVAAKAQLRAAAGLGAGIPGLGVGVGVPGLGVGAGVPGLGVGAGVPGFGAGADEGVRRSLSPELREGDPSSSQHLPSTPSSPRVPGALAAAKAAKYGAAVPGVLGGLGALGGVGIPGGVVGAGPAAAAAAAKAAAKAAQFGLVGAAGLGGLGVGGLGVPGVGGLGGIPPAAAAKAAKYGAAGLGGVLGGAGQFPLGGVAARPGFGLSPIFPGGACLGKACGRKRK
UniProt P02454, sequence (P02454 152-1207, chain 1 of 2): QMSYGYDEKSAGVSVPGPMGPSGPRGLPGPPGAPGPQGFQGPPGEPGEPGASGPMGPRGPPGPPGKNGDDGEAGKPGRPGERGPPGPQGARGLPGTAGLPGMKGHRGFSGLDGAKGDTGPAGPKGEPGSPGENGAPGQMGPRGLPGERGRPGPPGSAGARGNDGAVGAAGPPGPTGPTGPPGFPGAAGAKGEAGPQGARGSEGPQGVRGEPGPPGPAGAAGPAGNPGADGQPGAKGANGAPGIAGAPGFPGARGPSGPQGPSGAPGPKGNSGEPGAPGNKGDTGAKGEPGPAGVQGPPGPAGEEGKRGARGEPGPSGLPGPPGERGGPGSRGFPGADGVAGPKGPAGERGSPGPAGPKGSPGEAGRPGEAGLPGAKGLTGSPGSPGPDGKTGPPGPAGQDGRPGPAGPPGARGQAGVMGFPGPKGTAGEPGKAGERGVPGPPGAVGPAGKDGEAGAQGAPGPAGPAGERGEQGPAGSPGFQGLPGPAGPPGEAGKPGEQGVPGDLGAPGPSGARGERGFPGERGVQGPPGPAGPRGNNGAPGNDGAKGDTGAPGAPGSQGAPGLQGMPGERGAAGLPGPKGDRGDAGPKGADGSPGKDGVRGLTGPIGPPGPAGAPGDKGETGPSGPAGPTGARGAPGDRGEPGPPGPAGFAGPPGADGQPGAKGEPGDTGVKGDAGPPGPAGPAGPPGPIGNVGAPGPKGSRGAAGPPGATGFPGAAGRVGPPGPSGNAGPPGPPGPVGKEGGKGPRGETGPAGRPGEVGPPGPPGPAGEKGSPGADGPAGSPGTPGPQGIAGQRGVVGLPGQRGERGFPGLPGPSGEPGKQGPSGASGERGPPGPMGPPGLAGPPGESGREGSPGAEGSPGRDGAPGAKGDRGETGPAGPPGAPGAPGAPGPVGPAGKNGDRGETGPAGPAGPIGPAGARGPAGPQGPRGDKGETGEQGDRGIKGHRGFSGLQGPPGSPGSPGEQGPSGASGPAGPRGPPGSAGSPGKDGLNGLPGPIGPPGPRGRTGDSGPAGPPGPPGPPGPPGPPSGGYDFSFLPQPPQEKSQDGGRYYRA
UniProt P02454, sequence (P02466 86-1125, chain 2 of 2, further chain): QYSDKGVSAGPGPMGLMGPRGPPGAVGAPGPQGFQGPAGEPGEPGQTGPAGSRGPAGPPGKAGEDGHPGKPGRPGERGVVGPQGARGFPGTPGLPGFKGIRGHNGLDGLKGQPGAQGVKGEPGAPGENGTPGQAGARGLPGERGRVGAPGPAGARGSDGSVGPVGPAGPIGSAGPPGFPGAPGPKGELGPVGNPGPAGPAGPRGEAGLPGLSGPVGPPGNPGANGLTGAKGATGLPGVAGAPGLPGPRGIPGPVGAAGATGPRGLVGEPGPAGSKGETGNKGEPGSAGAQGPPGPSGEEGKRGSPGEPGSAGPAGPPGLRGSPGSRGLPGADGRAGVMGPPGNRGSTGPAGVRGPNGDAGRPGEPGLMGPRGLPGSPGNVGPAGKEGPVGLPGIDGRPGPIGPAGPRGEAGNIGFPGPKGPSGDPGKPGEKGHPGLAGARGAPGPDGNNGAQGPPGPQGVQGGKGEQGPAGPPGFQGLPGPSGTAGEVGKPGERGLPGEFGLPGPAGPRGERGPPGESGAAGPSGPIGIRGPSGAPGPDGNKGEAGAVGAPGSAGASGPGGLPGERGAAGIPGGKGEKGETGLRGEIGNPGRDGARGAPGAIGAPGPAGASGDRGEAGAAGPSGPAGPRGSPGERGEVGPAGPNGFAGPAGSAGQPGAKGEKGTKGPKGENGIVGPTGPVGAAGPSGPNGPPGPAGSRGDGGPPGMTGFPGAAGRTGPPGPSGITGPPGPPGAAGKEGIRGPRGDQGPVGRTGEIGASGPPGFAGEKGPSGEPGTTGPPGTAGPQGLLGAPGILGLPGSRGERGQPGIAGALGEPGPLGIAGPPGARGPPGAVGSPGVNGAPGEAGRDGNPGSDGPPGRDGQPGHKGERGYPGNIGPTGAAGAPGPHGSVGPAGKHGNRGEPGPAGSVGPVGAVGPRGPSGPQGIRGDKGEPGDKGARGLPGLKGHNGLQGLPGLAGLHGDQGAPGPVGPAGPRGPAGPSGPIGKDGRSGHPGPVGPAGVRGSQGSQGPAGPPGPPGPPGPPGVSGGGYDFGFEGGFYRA
UniProt P02671, sequence (P02671 36-866, chain 1 of 3): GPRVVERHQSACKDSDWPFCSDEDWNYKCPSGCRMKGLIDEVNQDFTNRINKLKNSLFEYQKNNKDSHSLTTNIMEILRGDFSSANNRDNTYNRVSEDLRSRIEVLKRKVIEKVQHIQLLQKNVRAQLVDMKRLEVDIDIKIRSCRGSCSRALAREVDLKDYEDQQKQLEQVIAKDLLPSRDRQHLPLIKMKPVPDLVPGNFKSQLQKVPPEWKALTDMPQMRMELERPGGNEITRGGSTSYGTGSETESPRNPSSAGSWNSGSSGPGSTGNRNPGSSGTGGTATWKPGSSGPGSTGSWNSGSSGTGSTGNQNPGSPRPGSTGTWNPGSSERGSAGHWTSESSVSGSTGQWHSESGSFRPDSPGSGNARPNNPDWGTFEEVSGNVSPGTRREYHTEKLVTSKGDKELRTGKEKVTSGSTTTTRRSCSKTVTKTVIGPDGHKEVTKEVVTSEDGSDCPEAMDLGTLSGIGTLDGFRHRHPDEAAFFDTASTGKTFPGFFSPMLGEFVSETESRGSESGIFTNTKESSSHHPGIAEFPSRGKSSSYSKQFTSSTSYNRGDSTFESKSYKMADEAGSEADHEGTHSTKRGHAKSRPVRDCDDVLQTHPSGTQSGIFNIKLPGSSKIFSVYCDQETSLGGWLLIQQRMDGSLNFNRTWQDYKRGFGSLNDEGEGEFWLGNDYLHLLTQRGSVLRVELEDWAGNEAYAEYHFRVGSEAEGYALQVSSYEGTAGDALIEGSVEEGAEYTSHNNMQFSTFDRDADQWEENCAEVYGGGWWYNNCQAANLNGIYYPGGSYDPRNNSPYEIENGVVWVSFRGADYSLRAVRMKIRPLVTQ
UniProt P02671, sequence (P02675 45-491, chain 2 of 3, further chain): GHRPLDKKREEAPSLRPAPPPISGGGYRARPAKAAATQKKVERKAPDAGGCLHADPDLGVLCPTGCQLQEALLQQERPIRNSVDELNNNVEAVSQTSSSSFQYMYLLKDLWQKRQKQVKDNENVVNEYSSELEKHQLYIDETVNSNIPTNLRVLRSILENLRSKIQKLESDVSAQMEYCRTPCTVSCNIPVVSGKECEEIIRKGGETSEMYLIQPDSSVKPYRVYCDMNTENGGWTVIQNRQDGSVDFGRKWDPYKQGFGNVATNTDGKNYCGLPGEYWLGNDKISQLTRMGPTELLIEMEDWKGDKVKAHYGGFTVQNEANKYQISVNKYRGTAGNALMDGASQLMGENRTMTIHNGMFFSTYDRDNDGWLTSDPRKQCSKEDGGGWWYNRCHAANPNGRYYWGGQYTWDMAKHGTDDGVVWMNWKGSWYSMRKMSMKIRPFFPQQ
UniProt P02671, sequence (P02679 27-453, chain 3 of 3, further chain): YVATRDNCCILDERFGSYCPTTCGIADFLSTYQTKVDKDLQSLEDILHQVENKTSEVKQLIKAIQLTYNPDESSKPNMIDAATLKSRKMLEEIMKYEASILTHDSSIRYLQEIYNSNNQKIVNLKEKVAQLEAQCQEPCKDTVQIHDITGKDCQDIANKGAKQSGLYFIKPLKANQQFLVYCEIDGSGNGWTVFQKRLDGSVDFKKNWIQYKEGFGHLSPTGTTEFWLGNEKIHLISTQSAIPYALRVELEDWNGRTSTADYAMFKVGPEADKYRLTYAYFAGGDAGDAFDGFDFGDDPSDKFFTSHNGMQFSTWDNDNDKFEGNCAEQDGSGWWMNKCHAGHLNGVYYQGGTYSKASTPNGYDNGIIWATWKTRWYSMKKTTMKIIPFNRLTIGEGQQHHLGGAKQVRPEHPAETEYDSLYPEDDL

Substance	Kd [1]	Kd (collagen IV)	Kd [2]	Kd [3]	Kd [4]	Kd [5]	Kd [6]	Kd [7]	Kd [8]
recombinant LipL41 (LIC12966) (natural protein)	1380 nM	537 nM	2720 nM	312 nM					
recombinant LipL21 (LIC10011) (natural protein)	147 nM	53.9 nM	171 nM	287 nM	6140 nM	1120 nM	2540 nM	13.8 nM	424 nM
